Source: patent US10696728B2, “Polypeptides, related nucleic acids, and their uses for cell modulation and treatments” (priority 2014, dated 2020)
“Also recorded” adds a separate entry of the source.

B1: TRPV1.D5: mouse TRPV1 linked to human domain 5 of kininogen 1 (SEQ ID NO:2), fusion protein expressed from pLVX vector (protein)
chain: MEKWASLDSDESEPPAQENSCPDPPDRDPNSKPPPAKPHIFATRSRTRLFGKGDSEEASPMDCPYEEGGLASCPIITVSSVVTLQRSVDGPTCLRQTSQDSVSTGVETPPRLYDRRSIFDAVAQSNCQELESLLSFLQKSKKRLTDSEFKDPETGKTCLLKAMLNLHNGQNDTIALLLDIARKTDSLKQFVNASYTDSYYKGQTALHIAIERRNMALVTLLVENGADVQAAANGDFFKKTKGRPGFYFGELPLSLAACTNQLAIVKFLLQNSWQPADISARDSVGNTVLHALVEVADNTADNTKFVTNMYNEILILGAKLHPTLKLEELTNKKGLTPLALAASSGKIGVLAYILQREIHEPECRHLSRKFTEWAYGPVHSSLYDLSCIDTCEKNSVLEVIAYSSSETPNRHDMLLVEPLNRLLQDKWDRFVKRIFYFNFFVYCLYMIIFTTAAYYRPVEGLPPYKLNNTVGDYFRVTGEILSVSGGVYFFFRGIQYFLQRRPSLKSLFVDSYSEILFFVQSLFMLVSVVLYFSHRKEYVASMVFSLAMGWTNMLYYTRGFQQMGIYAVMIEKMILRDLCRFMFVYLVFLFGFSTAVVTLIEDGKNNSLPVESPPHKCRGSACRPGNSYNSLYSTCLELFKFTIGMGDLEFTENYDFKAVFIILLLAYVILTYILLLNMLIALMGETVNKIAQESKNIWKLQRAITILDTEKSFLKCMRKAFRSGKLLQVGFTPDGKDDFRWCFRVDEVNWTTWNTNVGIINEDPGNCEGVKRTLSFSLRSGRVSGRNWKNFALVPLLRDASTRDRHSTQPEEVQLKHYTGSLKPEDAEVFKDSMAPGEKCSRVSPPHTSMAPAQDEERDSGKEQGHTRRHDWGHEKQRKHNLGHGHKHERDQGHGHQRGHGLGHGHEQQHGLGHGHKFKLDDDLEHQGGHVLDHGHKHKHGHGHGKHKNKGKKNGKHNGWKTEHLASL
modifications: Flag tag; mouse/human chimera TRPv1.D5
B2: TRPV1: Transient Receptor Potential channel Vanilloid 1, full length, amplified from mouse spinal cord cDNA; wild-type comparison channel without D5 (protein)
chain: MEKWASLDSDESEPPAQENSCPDPPDRDPNSKPPPAKPHIFATRSRTRLFGKGDSEEASPMDCPYEEGGLASCPIITVSSVVTLQRSVDGPTCLRQTSQDSVSTGVETPPRLYDRRSIFDAVAQSNCQELESLLSFLQKSKKRLTDSEFKDPETGKTCLLKAMLNLHNGQNDTIALLLDIARKTDSLKQFVNASYTDSYYKGQTALHIAIERRNMALVTLLVENGADVQAAANGDFFKKTKGRPGFYFGELPLSLAACTNQLAIVKFLLQNSWQPADISARDSVGNTVLHALVEVADNTADNTKFVTNMYNEILILGAKLHPTLKLEELTNKKGLTPLALAASSGKIGVLAYILQREIHEPECRHLSRKFTEWAYGPVHSSLYDLSCIDTCEKNSVLEVIAYSSSETPNRHDMLLVEPLNRLLQDKWDRFVKRIFYFNFFVYCLYMIIFTTAAYYRPVEGLPPYKLNNTVGDYFRVTGEILSVSGGVYFFFRGIQYFLQRRPSLKSLFVDSYSEILFFVQSLFMLVSVVLYFSHRKEYVASMVFSLAMGWTNMLYYTRGFQQMGIYAVMIEKMILRDLCRFMFVYLVFLFGFSTAVVTLIEDGKNNSLPVESPPHKCRGSACRPGNSYNSLYSTCLELFKFTIGMGDLEFTENYDFKAVFIILLLAYVILTYILLLNMLIALMGETVNKIAQESKNIWKLQRAITILDTEKSFLKCMRKAFRSGKLLQVGFTPDGKDDFRWCFRVDEVNWTTWNTNVGIINEDPGNCEGVKRTLSFSLRSGRVSGRNWKNFALVPLLRDASTRDRHSTQPEEVQLKHYTGSLKPEDAEVFKDSMAPGEK
modifications: Flag tag; Mouse TRPV1

How the values were obtained:
[1] = biological target: T1, wild-type human TRPV1 (Homo sapiens, UniProt Q8NER1); test: Heart defects in chick embryos with wild-type human TRPV1 exposed to capsaicin; assay type: in vivo, chicken; conditions: data not shown
T1 construct: expressed in transfected cells; host or cells: chick embryo (neural crest cells, in ovo)
T1 sequence (Q8NER1 whole entry): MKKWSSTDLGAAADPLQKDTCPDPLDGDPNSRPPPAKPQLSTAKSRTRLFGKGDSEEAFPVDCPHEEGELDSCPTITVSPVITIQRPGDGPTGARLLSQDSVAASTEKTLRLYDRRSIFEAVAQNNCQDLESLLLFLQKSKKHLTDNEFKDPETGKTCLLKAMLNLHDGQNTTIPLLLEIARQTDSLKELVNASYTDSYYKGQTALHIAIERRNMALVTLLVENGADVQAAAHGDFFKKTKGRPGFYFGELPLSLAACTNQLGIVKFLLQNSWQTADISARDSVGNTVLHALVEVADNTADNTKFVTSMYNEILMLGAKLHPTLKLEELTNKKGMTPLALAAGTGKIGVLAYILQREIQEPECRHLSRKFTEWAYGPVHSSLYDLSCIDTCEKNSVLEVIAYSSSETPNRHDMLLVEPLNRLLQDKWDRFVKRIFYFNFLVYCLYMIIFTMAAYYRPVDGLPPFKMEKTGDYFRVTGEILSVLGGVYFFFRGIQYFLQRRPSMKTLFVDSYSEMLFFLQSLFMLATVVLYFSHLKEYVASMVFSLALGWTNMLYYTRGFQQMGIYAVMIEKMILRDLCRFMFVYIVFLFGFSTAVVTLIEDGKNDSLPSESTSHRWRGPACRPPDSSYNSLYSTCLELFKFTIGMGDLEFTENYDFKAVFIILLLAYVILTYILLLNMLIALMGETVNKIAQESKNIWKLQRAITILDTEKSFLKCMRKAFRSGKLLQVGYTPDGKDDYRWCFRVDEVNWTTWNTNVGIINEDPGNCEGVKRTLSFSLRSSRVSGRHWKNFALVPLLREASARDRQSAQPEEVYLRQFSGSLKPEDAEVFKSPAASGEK

[2] = test system: CaMKii; test: Western blot for phosphorylation of CaMKii (threonine 286) in HEK cells; assay type: cell-based; conditions: for level of p-CaMKii following RF stimulation: 36 hrs after transfection, FIG. 13
Description: HEK cells were transiently transfected with TRPv1.D5. 36 hrs after transfection, TRPv1.D5 cells were exposed to RF. At time points indicated, cells were lysed and protein analyzed by western blot for phosphorylation of CaMKii on threonine^286 (p-CaMKii) using phospho-specific antibodies (top panel). Control cells (0 min) had very little detectable p-CaMKii.

[3] = test system: HEK cells; test: GCaMP fluorescence (Ca2+ influx) in HEK cells at three levels of applied RF field; assay type: cell-based; conditions: for increase of green fluorescence emitted by GCAMP, all cells (both green and red) / increase of green fluorescence emitted by GCAMP, cells that visually became brighter: FIG. 11
Description: Expression of TRPv1.D5 in HEK cells: HEK cell expression was performed using transient transfection. Briefly, 1 μg of plasmid was mixed with Lipofectamine LTX with PLUS reagent (Life Technologies) following the manufacturer instructions. Expression was confirmed by standard western blot technique. Once expression was confirmed, pLVX.TRPv1.D5 was co-transfected with a plasmid containing GCaMP6 (addgene). GCaMP6 is a genetically encoded Calcium indicator. Its green fluorescence increases in the presence of increasing amounts of intracellular calcium. Green fluorescence was analyzed in HEK cells using MetaFluor Analyst Software (Molecular Devices) following manufacture instructions. Transfected cells were analyzed prior to RF exposure and during 10 minutes of RF exposure, as discussed below.
The intensity of red fluorescence protein (RFP) indicates the cells that expressed TRPV1.D5 with mCherry.
FIG. 11 quantifies the fluorescence intensity at three levels of applied electromagnetic fields. Red fluorescence emitted by mCherry (“Red Fluorescence”) increased by less than 6.5% at the end of experiments. Green fluorescence (GCaMP3) emitted by GCAMP in cells without TRPV1.D5 (“GCAMP-TRPV1 (green only, not red)”) increased by less than 6.9%.

[4] = test system: human ferritin; test: Subcellular distribution of ferritin (FTH1-mCherry) in HEK-293 cells, confocal imaging; assay type: cell-based; conditions: co-transfection with FTH1-mCherry in HEK-293, FIG. 9a/9b
Chain of human ferritin (P02794 whole entry, the tested form may be a part): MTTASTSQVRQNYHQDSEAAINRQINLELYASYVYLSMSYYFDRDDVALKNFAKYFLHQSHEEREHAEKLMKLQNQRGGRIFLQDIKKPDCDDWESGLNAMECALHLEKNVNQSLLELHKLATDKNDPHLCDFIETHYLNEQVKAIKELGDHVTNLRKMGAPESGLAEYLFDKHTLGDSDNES
Excerpt: TRPV1.D5 redistributes endogenous ferritin to membranes. To visualize subcellular distribution of ferritin, we fused human ferritin with mCherry (FTH1-mCherry) at the C-terminal. Expression of FTH1-mCherry in HEK-293 yielded normal cytoplasmic distribution.

[5] = test system: chick embryos; test: Congenital heart defects in chick embryos with channel expression in neural crest cells; assay type: in vivo, chicken
[6] = test system: ferritin; test: Co-immunoprecipitation of ferritin with Flag-tagged channel; assay type: binding, human
Chain of ferritin (P02794 whole entry): as the sequence (P02794 whole entry, the tested form may be a part) above

[7] = test system: HEK-293 cells; test: GCaMP fluorescence in mCherry+ HEK-293 cells in response to RF (190 MHz Helmholtz coil) or capsaicin; assay type: cell-based; conditions: for GCaMP response to capsaicin: 1 μM capsaicin; for Ca2+ permeability following RF: RF stimulation 190 MHz, FIG. 12
Excerpt: A Helmholtz coil (190 MHz) was placed over a petri dish loaded with HEK-293 cells. RF power was supplied by a broadband (0-400 MHz) signal generator and amplified using a 10-W linear amplifier. We used GCaMP as an intracellular calcium indicator whose intensity is proportional to the amount of bound calcium. Using widefield fluorescent microscopy, we measured the change in GCaMP fluorescence in mCherry+ cells expressing TRPV1 and TRPV1.D5 in response to RF stimulation.

[8] = test system: Neural Crest Cells (NCCs) in chicken embryos; test: p-CaMKii immunostaining in neural crest cells of chick embryos after in ovo electroporation; assay type: in vivo
Excerpt: To determine if Ca^2+ flow could be modulated in vivo, we targeted wild-type TRPV1 or TRPV1.D5 expression to pre-migratory Neural Crest Cells (NCCs) in chicken embryos. NCC migration is dependent on control of Ca^2+ influx. (See, Hutson et al. 2003) NCCs transverse long distances through the embryo to enable proper heart development (e.g. outflow tracts). We utilized RF to increase Ca^2+ flow in NCCs while these cells were migrating out of the dorsal neural tube.
TRPV1.D5 was cloned into pLVX-EF1α-IRES-mCherry vectors. Plasmid DNA was then electroporated in ovo into the dorsal neural tube of chick embryos at Hamburger-Hamilton stage 9-11 to target premigratory NCCs. Twenty four hours later, expression of mCherry was confirmed and eggs were then subjected to no RF (FIG. 14a, control) or 10 minutes of RF (FIG. 14b and FIG. 14c). Immediately afterwards, embryos were removed and fixed in paraformaldehyde. These embryos were cryosectioned and stained for mCherry to identify TRPv1.D5+ cells and phosphorylated CaMKii (p-CaMKii) using an anti-Phospho-CaMKII antibody.

| Molecule | increase of green fluorescence emitted by GCAMP, all cells (both green and red) ([3]; high RF (132 G)) [%] | increase of green fluorescence emitted by GCAMP, cells that visually became brighter ([3]; high RF (132 G)) [%] | increase of green fluorescence emitted by GCAMP, all cells (both green and red) ([3]; low RF (62 G)) [%] | increase of green fluorescence emitted by GCAMP, cells that visually became brighter ([3]; low RF (62 G)) [%] | subcellular distribution of FTH1-mCherry (ferritin) [4] | GCaMP response to capsaicin [7] | Ca2+ permeability following RF [7] | further results |
| --- | --- | --- | --- | --- | --- | --- | --- | --- |
| COc1cc(CNC(=O)CCCC/C=C/C(C)C)ccc1O [capsaicin, reference compound] |  |  |  |  |  |  |  | replication of the defects caused by TRPV1.D5+RF [1]: replicated; phosphorylation of CaMKii ([2]; 1 μm Capsaicin (Cap+), TRPv1.D5 transfected HEK cells): induced phosphorylation of CaMKii |
| B1 | 22.2 | 151.3 | 9.0 | 48.3 | redistributed FTH1-mCherry to cell membranes | responded equally well | induced a transient increase in Ca^2+ permeability; also recorded: increases Ca^2+ ion modulation | GCAMP3 intensity on application of RF/EM fields ([3]; with vs without RF, FIG. 10): increased in the presence of RF; also recorded: increased GCAMP3 intensity; heart defects on RF activation in cardiac neural crest cells ([5]; RF for 10 minutes, FIG. 15): results in heart defects; embryos that developed congenital heart defects (VSD, double outlet right ventricle, transposition of great vessels) ([5]; RF-treated, day 10 post experiments): ~60%; development of heart defects ([5]; non-RF treated): nor the non-RF treated TRPV1.D5 embryos developed any defects; co-immunoprecipitation of Ferritin-mCherry ([6]; Flag-labelled channel, FIG. 9e, listed as Flag-TRPV1.D5): co-immunoprecipitates; pull-down of ferritin-mCherry and endogenous ferritin by immunoprecipitation ([6]; data not shown): successfully pulled down both ferritin-mCherry and endogenous ferritin; p-CaMKii in neural crest cells ([8]; 10 minutes of RF, FIG. 14b/14c): clear co-localization of the mutant channel and p-CaMKii; p-CaMKii in neural crest cells ([8]; no RF (control animals), FIG. 14a): did not observe detectable levels of p-CaMKii; time of peak p-CaMKii level following RF stimulation ([2]; TRPv1.D5+ HEK cells): 10 min; level of p-CaMKii following RF stimulation ([2]; TRPv1.D5+ HEK cells): induces p-CaMKii; level of p-CaMKii following RF stimulation ([2]; TRPv1.D5+ HEK cells, listed as TRPv1.D5): increases |
| B2 | 22.2 | 151.3 | 9.0 | 48.3 | cytoplasmic distribution was not altered | responded equally well | only TRPV1.D5 induced a transient increase | development of heart defects ([5]; with or without RF): Neither the TRPV1 embryos (with or without RF) nor the non-RF treated TRPV1.D5 embryos developed any defects |
